In the RNAGym collection of RNA variant scans (doi:10.1073/pnas.2313332121):
Variants at the floor of the assay were thinned out.

B1: TPR 5TU (parent)
chain: GGAUCUUCUCGAUCUAACAAAAAAGACAAAUCUGCCACAAAGCUUGAGAGCAUCUUCGGAUGCAGAGGCGGCAGCCUUCGGUGGCGCGAUAGCGCCAACGUUCUCAACUAUGACACGCAAAACGCGUGCUCCGUUGAAUGGAGUUUAUCAUG

Variants of: B1
Assay: polymerase ribozyme fitness, log enrichment relative to wild type (log ratio); higher = more active; in vitro selection for triplet polymerase activity
Summary of the method: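 One round of in vitro selection, in triplicate, was applied to PCR-built, transcribed mutant libraries of each subunit of a heterodimeric triplet polymerase ribozyme. The steps were annealing with a biotinylated primer, partner subunit and triplets, incubation frozen at −7 °C, gel excision of extended constructs, streptavidin-bead capture and RT-PCR. Fitness is the logarithm, base 2, of genotype enrichment over wild-type enrichment from inverse-variance-weighted replicate averages of Illumina-sequenced inputs and outputs, keeping genotypes with ≥10 input reads and ≥1 read per output.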

Variant | polymerase ribozyme fitness (log ratio)
G11C A120U | -2.55
G11C A19C | -1.41
C10U C14U C54U C72U U78A C79U G94C A97U | ≤ -4.2
C10U U15C A39U G48C C76A C85G G88A U90G G140U | ≤ -4.2
C10G A12G G84A U109G G141A | ≤ -4.2
C10G G86A | -3.52
G11U A12U A30U U55A C85U C95U A142U | ≤ -4.2
G11U A29C C35U U45A A66G A91U | -3.98
G11A C96G | -1.49
G11C C36G U56A C57U G59A C96G | ≤ -4.2
A12C A41G C87A A89C U144A | ≤ -4.2
C10U G46C G124A | ≤ -4.2
C10U A47C | -3.19
C10G C18G A19C C87A A98U A115U G117U | ≤ -4.2
U9C A28G C57A C96G U151C | ≤ -4.2
G11A A12G A52G U56A G81U | -2.09
C10U G67C | ≤ -4.2
C10U A40C G42C A49G G58U G83C G92A A107C G141C C149G | ≤ -4.2
C10A G83C | -3.94
A12C C43A C57A G84A U139G A147U | ≤ -4.2
C10U C96A C125A | -3.69

Variant | polymerase ribozyme fitness (log ratio)
U9G C27U A41U G46C U90G C96G A119C A122C | ≤ -4.2
G11A A20U C54A C87G G100C U145A | ≤ -4.2
G11U C32A C54U C57U G92C U148G U151G | ≤ -4.2
C10G A16G U53A U55A G65A G92A A98U G126A A138U U148G | -4.12
C10U A21U C54A U55A C95U U102G A106C G141C | ≤ -4.2
C10G A40G A49C U102G G128A | ≤ -4.2
G11A G86U C93G | -1.46
C10U C32G A39U U55A C95G C96A C149U | ≤ -4.2
G11C G46U U55A C87U C93U U127G A138C U145A | ≤ -4.2
C10G A19G A37G G42C C57U G59A C129A | ≤ -4.2
G11C A47U G68C C85A C95A A106G U134C A150G | ≤ -4.2
C10U G58A U109G | -3.43
C10G U13G C57U C85U G152C | ≤ -4.2
C10A A22C A73U C79G C87A A113G | ≤ -4.2
A12C A19U G80U A89G C96A | ≤ -4.2
G11U A60C C76U | -3.53
U9G G141U | -2.58
C10U A52C U55A A97G A98G C129U | ≤ -4.2
G11A A23C A29C A30U C36U U44A A73U G81A C125U G143U | ≤ -4.2
C10G C79G | ≤ -4.2
C10G U55A U148A A150C | ≤ -4.2

Variant | polymerase ribozyme fitness (log ratio)
G11C C38G C87A C95U G100U C105U C118A C129G G133U | ≤ -4.2
C10A U102G U139G A150U U151G | ≤ -4.2
A12C A40C C87A C93U G94C A110G A142U | ≤ -4.2
C10A C32G C38U C54U A142U | -4.12
C10U U90G C116G | -3.83
U9G C75G C76A C85G | ≤ -4.2
C10G A19U C32A C93U U127A | ≤ -4.2
A12C A24G G50C C72U C87G U111C | ≤ -4.2
C10G C116A | -2.96
C10G C96U | -2.78
C10G C96G | -3.62
U9G A23U A26G A28G U61A G80A A120U G141U | ≤ -4.2
C10A C76U | -3.95
G11C C76A | -1.78
U9G C35U G48U U56G A60C G74A C96G U104G A107U | ≤ -4.2
G11A A29G C38G A147C | ≤ -4.2
G11A A17C A20C A22U G46U C85U | -3.03
A12C C35G U56G G80A G81C G100C C116U U135C | ≤ -4.2
U9C C27G U44G C85U C93G | ≤ -4.2
U9G C27G A28G A41C C57U U82G G92C G140U | ≤ -4.2
A12C C35U A39G G59A C85A C87U | ≤ -4.2

Variant | polymerase ribozyme fitness (log ratio)
G11A A26C U33G C129A | ≤ -4.2
U9A U78C G84U C99G A113U A115C G117U U135C U144A U148G | ≤ -4.2
G11C C93A C125U | ≤ -4.2
G11U G74A C85A U90C G141A U148C | ≤ -4.2
C10G C38U C95A | ≤ -4.2
C10U A17G A28C G42A C85U A89G C93U U145G | ≤ -4.2
C10U U56A G67C G86C C96A G126U | ≤ -4.2
C10U A29U U53A C79G C85U C95G A107U | ≤ -4.2
C10G C87U | -3.38
C10U G83A | -3.44
C10A U31G G50A G58C C96A C116U | ≤ -4.2
G11C A26U C69U | ≤ -4.2
C10A A12U A28C A29C A107G | ≤ -4.2
C10U G84A G126U | -4.02
C10U A12U A121C | -4.08
U9C A37C A40G U53A C75U U77A A119U | ≤ -4.2
A12C C87U | -0.61
U9G C32A A40G A52G | ≤ -4.2
C10G A47G A49G G71A C87U A97U A106G A107C U111G U134C | ≤ -4.2
C10U A19U C32G G80A G88U A115G U146A | ≤ -4.2
